Laboratory results as given in patent US20120316071A1 (published 2012).

Assays:
[1] = target: T1, Recombinant Human DLL4 (delta-like protein 4) (human, UniProt Q9NR61 27-524); assay: ECL binding assay on immobilized DLL4, Fab at 0.04 µM
T1 construct: Bought recombinant human DLL4 (R&D Systems Cat#1506-D4/CF); also called rHuman DLL4; Delta-like ligand 4

[2] = target: T2, Recombinant Human DLL4 (R&D Systems Cat#1506-D4/CF) (human, UniProt Q9NR61 27-529); assay: ECL 96-well plate assay (MSD), 0.1 µM Fab, plate coated with 30 µg/mL DLL4
T2 construct: Bought recombinant protein, coated on the plate; also called delta-like protein 4; rHuman DLL4

[3] = target: T2, Recombinant Human DLL4 (R&D Systems …); assay: ECL 96-well plate assay (MSD), 0.02 µM Fab, plate coated with 15 µg/mL DLL4
[4] = target: T3, Recombinant Human DLL4 (delta-like protein 4) (human, UniProt Q9NR61 27-524); assay: ELISA, plate-coated DLL4, Fab 25 nM
T3 construct: also called rHuman DLL4

[5] = target: T3, Recombinant Human DLL4 (delta-like …); assay: ELISA, plate-coated DLL4, Fab 50 nM
[6] = target: T3, Recombinant Human DLL4 (delta-like …); assay: ELISA, plate-coated DLL4, Fab 100 nM
[7] = target: T3, Recombinant Human DLL4 (delta-like …); assay: ELISA, plate-coated DLL4, Fab 12.5 nM
[8] = target: T3, Recombinant Human DLL4 (delta-like …); assay: ELISA, plate-coated DLL4, Fab 6.25 nM
[9] = target: T3, Recombinant Human DLL4 (delta-like …); assay: ELISA, plate-coated DLL4, Fab 3.125 nM

Binder	Signal/Noise (0.04 µM) [1]	Signal/Noise [2]	Signal/Noise [3]	further results
Fab VH5-51_IGHD5-18*01>3_IGHJ4*01 & V3-4_IGLJ1*01 (Fab, V domains shown, Fab expressed in E. coli; VH was cloned into Plasmid A (CH1, His6 and Flag tags) and VL into Plasmid E (lambda CL); also called wildtype; parent Hit Fab VH5-51_IGHD5-18*01>3_IGHJ4*01 & V3-4_IGLJ1*01) VH: EVQLVQSGAEVKKPGESLKISCKGSGYSFTSYWIGWVRQMPGKGLEWMGIIYPGDSDTRYSPSFQGQVTISADKSISTAYLQWSSLKASDTAMYYCARRGYSYGYDYFDYWGQGTLVTVSS VL: QTVVTQEPSFSVSPGGTVTLTCGLSSGSVSTSYYPSWYQQTPGQAPRTLIYSTNTRSSGVPDRFSGSILGNKAALTITGAQADDESDYYCVLYMGSGISYVFGTGTKVTVL	14.7	–	–	–
Fab VH5-51_IGHD5-18*01>3_IGHJ4*01 & V3-4_IGLJ1*01 (Fab, V domains shown, Tested as Fab from E. coli; VH was cloned into Plasmid A, which supplies CH1 and His6 and Flag tags; The lambda VL was cloned into Plasmid E, which supplies lambda CL; also called wildtype; parent Hit Fab VH5-51_IGHD5-18*01_IGHJ4*01 & V3-4_IGLJ1*01) VH: EVQLVQSGAEVKKPGESLKISCKGSGYSFTSYWIGWVRQMPGKGLEWMGIIYPGDSDTRYSPSFQGQVTISADKSISTAYLQWSSLKASDTAMYYCARRGYSYGYDYFDYWGQGTLVTVSS VL: QTVVTQEPSFSVSPGGTVTLTCGLSSGSVSTSYYPSWYQQTPGQAPRTLIYSTNTRSSGVPDRFSGSILGNKAALTITGAQADDESDYYCVLYMGSGISYVFGTGTKVTVL	–	24	15.2	–
Fab VH5-51_IGHD5-18*01>3_IGHJ4*01 G100A & V3-4_IGLJ1*01 (Fab, V domains shown, Fab with CH1 (Plasmid A, His6 and Flag tags) and lambda CL (Plasmid E)) VH: EVQLVQSGAEVKKPGESLKISCKGSGYSFTSYWIGWVRQMPGKGLEWMGIIYPGDSDTRYSPSFQGQVTISADKSISTAYLQWSSLKASDTAMYYCARRAYSYGYDYFDYWGQGTLVTVSS VL: QTVVTQEPSFSVSPGGTVTLTCGLSSGSVSTSYYPSWYQQTPGQAPRTLIYSTNTRSSGVPDRFSGSILGNKAALTITGAQADDESDYYCVLYMGSGISYVFGTGTKVTVL	30.4	–	–	–
Fab VH5-51_IGHD5-18*01>3_IGHJ4*01 G104A & V3-4_IGLJ1*01 (Fab, V domains shown, Heavy chain CDR3 alanine mutant of the parent Fab; Fab format as for the parent) VH: EVQLVQSGAEVKKPGESLKISCKGSGYSFTSYWIGWVRQMPGKGLEWMGIIYPGDSDTRYSPSFQGQVTISADKSISTAYLQWSSLKASDTAMYYCARRGYSYAYDYFDYWGQGTLVTVSS VL: QTVVTQEPSFSVSPGGTVTLTCGLSSGSVSTSYYPSWYQQTPGQAPRTLIYSTNTRSSGVPDRFSGSILGNKAALTITGAQADDESDYYCVLYMGSGISYVFGTGTKVTVL	–	41.5	12.5	–
Fab VH5-51_IGHD5-18*01>3_IGHJ4*01 G100A & V3-4_IGLJ1*01 (Fab, V domains shown, Heavy chain CDR3 alanine mutant of the parent Fab; Fab format as for the parent) VH: EVQLVQSGAEVKKPGESLKISCKGSGYSFTSYWIGWVRQMPGKGLEWMGIIYPGDSDTRYSPSFQGQVTISADKSISTAYLQWSSLKASDTAMYYCARRAYSYGYDYFDYWGQGTLVTVSS VL: QTVVTQEPSFSVSPGGTVTLTCGLSSGSVSTSYYPSWYQQTPGQAPRTLIYSTNTRSSGVPDRFSGSILGNKAALTITGAQADDESDYYCVLYMGSGISYVFGTGTKVTVL	–	53.3	24.2	–
Fab VH5-51_IGHD5-18*01>3_IGHJ4*01 G104A & V3-4_IGLJ1*01 (Fab, V domains shown, Fab with CH1 (Plasmid A, His6 and Flag tags) and lambda CL (Plasmid E)) VH: EVQLVQSGAEVKKPGESLKISCKGSGYSFTSYWIGWVRQMPGKGLEWMGIIYPGDSDTRYSPSFQGQVTISADKSISTAYLQWSSLKASDTAMYYCARRGYSYAYDYFDYWGQGTLVTVSS VL: QTVVTQEPSFSVSPGGTVTLTCGLSSGSVSTSYYPSWYQQTPGQAPRTLIYSTNTRSSGVPDRFSGSILGNKAALTITGAQADDESDYYCVLYMGSGISYVFGTGTKVTVL	15.5	–	–	–
Fab VH1-46_IGHD6-6*01_IGHJ1*01 S102A/S103P/S104F/H111F (APFF) & L6_IGKJ1*01 S28N/S30D/S31H N53H (Fab, V domains shown, Fab made in E. coli: VH in plasmid A (CH1, His6 and Flag tags), VL in plasmid C (kappa CL); also called H:APFF & L:NDH N53H; APFF / NDH/N53H) VH: QVQLVQSGAEVKKPGASVKVSCKASGYTFTSYYMHWVRQAPGQGLEWMGIINPSGGSTSYAQKFQGRVTMTRDTSTSTVYMELSSLRSEDTAVYYCAREEYAPFSAEYFQFWGQGTLVTVSS VL: EIVLTQSPATLSLSPGERATLSCRASQNVDHYLAWYQQKPGQAPRLLIYDASHRATGIPARFSGSGSGTDFTLTISSLEPEDFAVYYCQQRSNWPPWTFGQGTKVEIKR	–	–	–	ELISA signal at 25 nM Fab [4]: 0.238; ELISA signal at 50 nM Fab [5]: 0.416; ELISA signal at 100 nM Fab [6]: 0.608; ELISA signal at 12.5 nM Fab [7]: 0.167; ELISA signal at 6.25 nM Fab [8]: 0.109; ELISA signal at 3.125 nM Fab [9]: 0.089
Fab VH1-46_IGHD6-6*01_IGHJ1*01 S102A/S103P/S104F/H111F (APFF) & L6_IGKJ1*01 S28N/S30D/S31H S52T (Fab, V domains shown, Fab made in E. coli: VH in plasmid A (CH1, His6 and Flag tags), VL in plasmid C (kappa CL); also called H:APFF & L:NDH S52T; APFF / NDH/S52T) VH: QVQLVQSGAEVKKPGASVKVSCKASGYTFTSYYMHWVRQAPGQGLEWMGIINPSGGSTSYAQKFQGRVTMTRDTSTSTVYMELSSLRSEDTAVYYCAREEYAPFSAEYFQFWGQGTLVTVSS VL: EIVLTQSPATLSLSPGERATLSCRASQNVDHYLAWYQQKPGQAPRLLIYDATNRATGIPARFSGSGSGTDFTLTISSLEPEDFAVYYCQQRSNWPPWTFGQGTKVEIKR	–	–	–	ELISA signal at 25 nM Fab [4]: 0.323; ELISA signal at 50 nM Fab [5]: 0.49; ELISA signal at 100 nM Fab [6]: 0.653; ELISA signal at 12.5 nM Fab [7]: 0.215; ELISA signal at 6.25 nM Fab [8]: 0.13; ELISA signal at 3.125 nM Fab [9]: 0.099
Fab VH1-46_IGHD6-6*01_IGHJ1*01 S102A/S103P/S104F/H111F (APFF) & L6_IGKJ1*01 S28N/S30D/S31H S52L (Fab, V domains shown, Fab made in E. coli: VH in plasmid A (CH1, His6 and Flag tags), VL in plasmid C (kappa CL); also called H:APFF & L:NDH S52L; APFF / NDH/S52L) VH: QVQLVQSGAEVKKPGASVKVSCKASGYTFTSYYMHWVRQAPGQGLEWMGIINPSGGSTSYAQKFQGRVTMTRDTSTSTVYMELSSLRSEDTAVYYCAREEYAPFSAEYFQFWGQGTLVTVSS VL: EIVLTQSPATLSLSPGERATLSCRASQNVDHYLAWYQQKPGQAPRLLIYDALNRATGIPARFSGSGSGTDFTLTISSLEPEDFAVYYCQQRSNWPPWTFGQGTKVEIKR	–	–	–	ELISA signal at 25 nM Fab [4]: 0.335; ELISA signal at 50 nM Fab [5]: 0.546; ELISA signal at 100 nM Fab [6]: 0.791; ELISA signal at 12.5 nM Fab [7]: 0.215; ELISA signal at 6.25 nM Fab [8]: 0.142; ELISA signal at 3.125 nM Fab [9]: 0.095

Second part, led by results:

Signal/Noise (0.04 µM) [1]	Signal/Noise [2]	Signal/Noise [3]	Binder	further results
–	4.7	1.8	Fab VH5-51_IGHD5-18*01>3_IGHJ4*01 S102A & V3-4_IGLJ1*01 (Fab, V domains shown, Heavy chain CDR3 alanine mutant of the parent Fab; Fab format as for the parent) VH: EVQLVQSGAEVKKPGESLKISCKGSGYSFTSYWIGWVRQMPGKGLEWMGIIYPGDSDTRYSPSFQGQVTISADKSISTAYLQWSSLKASDTAMYYCARRGYAYGYDYFDYWGQGTLVTVSS VL: QTVVTQEPSFSVSPGGTVTLTCGLSSGSVSTSYYPSWYQQTPGQAPRTLIYSTNTRSSGVPDRFSGSILGNKAALTITGAQADDESDYYCVLYMGSGISYVFGTGTKVTVL	–
9.6	–	–	Fab VH5-51_IGHD5-18*01>3_IGHJ4*01 Y105A & V3-4_IGLJ1*01 (Fab, V domains shown, Fab with CH1 (Plasmid A, His6 and Flag tags) and lambda CL (Plasmid E)) VH: EVQLVQSGAEVKKPGESLKISCKGSGYSFTSYWIGWVRQMPGKGLEWMGIIYPGDSDTRYSPSFQGQVTISADKSISTAYLQWSSLKASDTAMYYCARRGYSYGADYFDYWGQGTLVTVSS VL: QTVVTQEPSFSVSPGGTVTLTCGLSSGSVSTSYYPSWYQQTPGQAPRTLIYSTNTRSSGVPDRFSGSILGNKAALTITGAQADDESDYYCVLYMGSGISYVFGTGTKVTVL	–
1.2	–	–	Fab VH5-51_IGHD5-18*01>3_IGHJ4*01 Y103A & V3-4_IGLJ1*01 (Fab, V domains shown, Fab with CH1 (Plasmid A, His6 and Flag tags) and lambda CL (Plasmid E)) VH: EVQLVQSGAEVKKPGESLKISCKGSGYSFTSYWIGWVRQMPGKGLEWMGIIYPGDSDTRYSPSFQGQVTISADKSISTAYLQWSSLKASDTAMYYCARRGYSAGYDYFDYWGQGTLVTVSS VL: QTVVTQEPSFSVSPGGTVTLTCGLSSGSVSTSYYPSWYQQTPGQAPRTLIYSTNTRSSGVPDRFSGSILGNKAALTITGAQADDESDYYCVLYMGSGISYVFGTGTKVTVL	–
2	–	–	Fab VH5-51_IGHD5-18*01>3_IGHJ4*01 S102A & V3-4_IGLJ1*01 (Fab, V domains shown, Fab with CH1 (Plasmid A, His6 and Flag tags) and lambda CL (Plasmid E)) VH: EVQLVQSGAEVKKPGESLKISCKGSGYSFTSYWIGWVRQMPGKGLEWMGIIYPGDSDTRYSPSFQGQVTISADKSISTAYLQWSSLKASDTAMYYCARRGYAYGYDYFDYWGQGTLVTVSS VL: QTVVTQEPSFSVSPGGTVTLTCGLSSGSVSTSYYPSWYQQTPGQAPRTLIYSTNTRSSGVPDRFSGSILGNKAALTITGAQADDESDYYCVLYMGSGISYVFGTGTKVTVL	–
–	1	1	Fab VH5-51_IGHD5-18*01>3_IGHJ4*01 Y105A & V3-4_IGLJ1*01 (Fab, V domains shown, Heavy chain CDR3 alanine mutant of the parent Fab; Fab format as for the parent) VH: EVQLVQSGAEVKKPGESLKISCKGSGYSFTSYWIGWVRQMPGKGLEWMGIIYPGDSDTRYSPSFQGQVTISADKSISTAYLQWSSLKASDTAMYYCARRGYSYGADYFDYWGQGTLVTVSS VL: QTVVTQEPSFSVSPGGTVTLTCGLSSGSVSTSYYPSWYQQTPGQAPRTLIYSTNTRSSGVPDRFSGSILGNKAALTITGAQADDESDYYCVLYMGSGISYVFGTGTKVTVL	–
–	4	1.5	Fab VH5-51_IGHD5-18*01>3_IGHJ4*01 Y103A & V3-4_IGLJ1*01 (Fab, V domains shown, Heavy chain CDR3 alanine mutant of the parent Fab; Fab format as for the parent) VH: EVQLVQSGAEVKKPGESLKISCKGSGYSFTSYWIGWVRQMPGKGLEWMGIIYPGDSDTRYSPSFQGQVTISADKSISTAYLQWSSLKASDTAMYYCARRGYSAGYDYFDYWGQGTLVTVSS VL: QTVVTQEPSFSVSPGGTVTLTCGLSSGSVSTSYYPSWYQQTPGQAPRTLIYSTNTRSSGVPDRFSGSILGNKAALTITGAQADDESDYYCVLYMGSGISYVFGTGTKVTVL	–
